{"source": "patent US20260184748A1", "about": "(University of Pennsylvania, published 2026)", "binders": {"B1": {"name": "octadecaneuropeptide (ODN) (peptide)", "peptide": "QATVGDVNTDRPGLLDLK", "modifications": "also: synthesised on Rink amide resin, C-terminal amide not given here outright"}}, "experiment_in_all_cases": "cell-based or functional assay", "key": {"OPRL1": {"target": "OPRL1 (UniProt P41146 1-370)", "sequence (P41146 whole entry)": "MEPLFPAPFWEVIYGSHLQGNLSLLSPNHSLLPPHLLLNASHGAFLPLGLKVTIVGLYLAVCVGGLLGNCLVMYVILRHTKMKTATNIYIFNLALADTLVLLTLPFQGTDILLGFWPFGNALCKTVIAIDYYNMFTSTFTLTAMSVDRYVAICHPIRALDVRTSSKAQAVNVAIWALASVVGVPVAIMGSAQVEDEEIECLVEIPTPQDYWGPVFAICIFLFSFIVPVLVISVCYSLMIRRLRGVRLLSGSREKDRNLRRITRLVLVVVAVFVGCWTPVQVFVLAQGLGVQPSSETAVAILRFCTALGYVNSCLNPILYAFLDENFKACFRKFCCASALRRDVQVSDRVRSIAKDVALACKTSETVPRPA"}, "HTR1A": {"target": "T1, HTR1A (UniProt P08908 1-422)", "T1 sequence (looked up)": "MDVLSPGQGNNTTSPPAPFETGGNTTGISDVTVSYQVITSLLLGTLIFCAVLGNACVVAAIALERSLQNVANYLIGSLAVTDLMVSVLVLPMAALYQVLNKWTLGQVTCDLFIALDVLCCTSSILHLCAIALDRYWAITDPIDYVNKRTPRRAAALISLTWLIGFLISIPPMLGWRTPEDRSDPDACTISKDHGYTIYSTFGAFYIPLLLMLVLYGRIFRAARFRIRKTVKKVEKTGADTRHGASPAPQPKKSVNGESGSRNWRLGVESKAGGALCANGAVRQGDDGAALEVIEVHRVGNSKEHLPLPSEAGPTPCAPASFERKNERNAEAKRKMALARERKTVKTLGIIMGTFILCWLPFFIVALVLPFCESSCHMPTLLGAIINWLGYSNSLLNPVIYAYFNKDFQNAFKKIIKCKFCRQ"}, "P2RY6": {"target": "P2RY6 (UniProt Q15077 1-328)", "sequence (Q15077 whole entry)": "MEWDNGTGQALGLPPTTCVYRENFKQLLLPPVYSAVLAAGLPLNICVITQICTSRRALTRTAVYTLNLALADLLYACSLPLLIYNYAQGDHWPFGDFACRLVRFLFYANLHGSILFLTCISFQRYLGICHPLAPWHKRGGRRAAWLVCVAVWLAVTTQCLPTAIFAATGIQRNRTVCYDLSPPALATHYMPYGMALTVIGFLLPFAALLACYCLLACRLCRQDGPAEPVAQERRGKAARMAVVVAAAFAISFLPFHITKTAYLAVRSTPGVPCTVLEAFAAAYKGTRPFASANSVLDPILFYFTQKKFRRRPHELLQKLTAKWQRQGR"}, "AGTRL1": {"target": "T2, AGTRL1 (UniProt P35414 1-380)", "T2 sequence (looked up)": "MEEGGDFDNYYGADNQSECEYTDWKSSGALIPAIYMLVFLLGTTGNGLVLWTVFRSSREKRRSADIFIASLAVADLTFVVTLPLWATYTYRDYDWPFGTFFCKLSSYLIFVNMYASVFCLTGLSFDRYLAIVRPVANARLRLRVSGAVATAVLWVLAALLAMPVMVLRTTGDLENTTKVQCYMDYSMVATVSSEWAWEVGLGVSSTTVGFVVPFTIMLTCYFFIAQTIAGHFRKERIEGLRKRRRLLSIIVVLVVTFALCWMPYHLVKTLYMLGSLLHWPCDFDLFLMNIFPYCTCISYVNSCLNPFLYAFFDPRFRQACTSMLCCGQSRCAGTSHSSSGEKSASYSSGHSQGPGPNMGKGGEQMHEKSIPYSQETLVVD"}, "CCR4": {"target": "T3, CCR4 (UniProt P51679 1-360)", "T3 sequence (looked up)": "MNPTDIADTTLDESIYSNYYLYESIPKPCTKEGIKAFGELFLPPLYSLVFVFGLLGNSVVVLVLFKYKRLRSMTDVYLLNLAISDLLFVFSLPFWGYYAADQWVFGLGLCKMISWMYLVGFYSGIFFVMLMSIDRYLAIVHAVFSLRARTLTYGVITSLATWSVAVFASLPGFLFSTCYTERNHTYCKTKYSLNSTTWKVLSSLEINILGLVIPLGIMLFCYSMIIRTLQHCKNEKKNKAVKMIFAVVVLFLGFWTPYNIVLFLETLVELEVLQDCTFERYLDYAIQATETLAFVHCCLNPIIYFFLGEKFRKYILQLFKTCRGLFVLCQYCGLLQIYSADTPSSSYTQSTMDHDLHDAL"}, "HRH3": {"target": "HRH3 (UniProt Q9Y5N1 1-445, limits assumed)", "sequence (Q9Y5N1 whole entry)": "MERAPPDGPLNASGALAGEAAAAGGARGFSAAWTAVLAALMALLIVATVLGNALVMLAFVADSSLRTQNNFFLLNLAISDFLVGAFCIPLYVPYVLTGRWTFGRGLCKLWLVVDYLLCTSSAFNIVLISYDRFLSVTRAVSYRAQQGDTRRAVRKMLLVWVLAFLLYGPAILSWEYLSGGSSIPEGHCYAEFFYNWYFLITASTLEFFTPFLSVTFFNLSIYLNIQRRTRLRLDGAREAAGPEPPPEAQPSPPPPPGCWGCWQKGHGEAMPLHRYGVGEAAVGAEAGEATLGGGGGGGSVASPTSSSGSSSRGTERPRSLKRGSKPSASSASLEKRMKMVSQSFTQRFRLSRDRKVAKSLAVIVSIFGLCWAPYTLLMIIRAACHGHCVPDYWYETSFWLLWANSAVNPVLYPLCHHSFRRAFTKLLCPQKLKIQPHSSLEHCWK"}, "TRHR": {"target": "T4, TRHR (UniProt P34981 1-398)", "T4 sequence (looked up)": "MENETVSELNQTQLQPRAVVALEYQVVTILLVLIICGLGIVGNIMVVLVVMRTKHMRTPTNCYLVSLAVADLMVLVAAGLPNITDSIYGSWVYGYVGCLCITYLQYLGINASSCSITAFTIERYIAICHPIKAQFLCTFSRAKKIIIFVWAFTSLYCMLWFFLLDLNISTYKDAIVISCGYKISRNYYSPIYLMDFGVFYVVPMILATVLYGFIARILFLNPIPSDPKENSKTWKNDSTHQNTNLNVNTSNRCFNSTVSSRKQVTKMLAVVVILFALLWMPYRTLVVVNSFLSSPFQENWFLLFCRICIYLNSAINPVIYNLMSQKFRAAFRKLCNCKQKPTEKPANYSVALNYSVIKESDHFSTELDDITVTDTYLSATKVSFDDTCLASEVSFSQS"}, "C5aR1": {"target": "T5, C5aR1 (UniProt P21730 1-350)", "T5 sequence (looked up)": "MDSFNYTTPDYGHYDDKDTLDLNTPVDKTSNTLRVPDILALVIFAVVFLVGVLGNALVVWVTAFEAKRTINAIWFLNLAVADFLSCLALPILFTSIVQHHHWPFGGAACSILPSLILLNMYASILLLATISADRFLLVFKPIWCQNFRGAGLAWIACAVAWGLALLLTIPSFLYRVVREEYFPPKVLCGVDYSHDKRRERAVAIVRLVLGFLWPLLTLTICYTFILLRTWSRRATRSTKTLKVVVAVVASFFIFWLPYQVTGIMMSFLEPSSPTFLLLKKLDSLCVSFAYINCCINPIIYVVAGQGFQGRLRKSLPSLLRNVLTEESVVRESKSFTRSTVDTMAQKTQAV"}, "NMU1R": {"target": "T6, NMU1R (UniProt Q9HB89 1-426, limits assumed)", "T6 sequence (looked up)": "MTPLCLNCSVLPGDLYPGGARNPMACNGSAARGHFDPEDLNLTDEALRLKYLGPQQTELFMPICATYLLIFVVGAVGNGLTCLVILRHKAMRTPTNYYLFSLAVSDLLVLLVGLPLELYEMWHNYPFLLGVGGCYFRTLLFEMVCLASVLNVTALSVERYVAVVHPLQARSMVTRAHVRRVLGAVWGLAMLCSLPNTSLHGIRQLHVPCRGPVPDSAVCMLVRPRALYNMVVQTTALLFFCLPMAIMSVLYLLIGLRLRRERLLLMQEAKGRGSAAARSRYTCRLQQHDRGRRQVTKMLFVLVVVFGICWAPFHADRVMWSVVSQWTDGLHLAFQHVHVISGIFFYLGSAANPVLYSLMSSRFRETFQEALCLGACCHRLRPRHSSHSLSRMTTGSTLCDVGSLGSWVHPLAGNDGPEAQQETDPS"}}, "note": "Where no end group is shown, it is not given here."}
{"binder": "B1", "values": [{"measurement": "% Activity, arrestin, antagonist mode, 2.5 uM", "setting": "OPRL1", "value": -5.6, "unit": "%"}, {"measurement": "% Activity, arrestin, antagonist mode, 2.5 uM", "setting": "HTR1A", "value": -6.2, "unit": "%"}, {"measurement": "% Activity, arrestin, antagonist mode, 2.5 uM", "setting": "P2RY6", "value": -15.1, "unit": "%"}, {"measurement": "% Activity, arrestin, antagonist mode, 2.5 uM", "setting": "AGTRL1", "value": -23.4, "unit": "%"}, {"measurement": "% Activity, arrestin, antagonist mode, 2.5 uM", "setting": "CCR4", "value": 1.3, "unit": "%"}, {"measurement": "% Activity, arrestin, antagonist mode, 2.5 uM", "setting": "HRH3", "value": -8.6, "unit": "%"}, {"measurement": "% Activity, arrestin, antagonist mode, 2.5 uM", "setting": "TRHR", "value": -6.6, "unit": "%"}, {"measurement": "% Activity, arrestin, antagonist mode, 2.5 uM", "setting": "C5aR1", "value": -14.2, "unit": "%"}, {"measurement": "% Activity, arrestin, antagonist mode, 2.5 uM", "setting": "NMU1R", "value": -34.2, "unit": "%"}]}
